Experimental data as given in PMC8391295, “Unraveling Human AQP5-PIP Molecular Interaction and Effect on AQP5 Salivary Glands Localization in SS Patients” (Cells, 2021).

Target: T1, full-length His-tagged AQP5 (human, UniProt P55064 1-265)
T1 construct: aquaporin-5 (AQP5), human, full-length construct with His-tag; also called FL-AQP5; full-length AQP5; source: Pichia pastoris X-33, purified (solubilised in NG, Resource S, Superdex 200)
Experiment: MST; labeled PIP at 42 nM, 1:1 dilution series of AQP5; 20 mM phosphate buffer pH 7.5, 100 mM NaCl, 0.8% NG; Hill equation fit on total monomeric AQP5 concentration; triplicates
Settings: both partners purified

T1 sequence (P55064 whole entry): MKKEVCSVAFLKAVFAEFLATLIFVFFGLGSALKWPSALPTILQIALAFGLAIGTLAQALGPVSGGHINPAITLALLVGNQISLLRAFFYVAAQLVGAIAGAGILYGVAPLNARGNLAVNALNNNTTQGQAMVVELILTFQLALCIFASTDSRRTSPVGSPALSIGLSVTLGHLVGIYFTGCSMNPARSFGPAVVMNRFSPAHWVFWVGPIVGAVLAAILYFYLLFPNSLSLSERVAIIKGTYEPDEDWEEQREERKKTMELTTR

Kd: 570 nM
B1: mature C-terminal His-tag PIP (prolactin-inducible protein, residues 29-146) (natural protein, human, UniProt P12273 29-146, looked up)
chain: QDNTRKIIIKNFDIPKSVRPNDEVTAVLAVQTELKECMVVKTYLISSIPLQGAFNYKYTACLCDDNPKTFYWDFYTNRTVQIAAVVDVIRELGICPDDAAVIPIKNNRFYTIEILKVE
modifications: non homogeneously glycosylated; labeled with an amine-reactive dye (Monolith NT Protein RED-NHS Labeling Kit) in the MST experiments
notes: also called recombinant PIP; purified PIP; source: Pichia pastoris, secreted into the media, purified (HisTrap HP, Superdex 200); not shown: His6 (thrombin-cleavable), C-terminal, kept
